Test results as given in the domain aggregation screens of Martell et al. (2025).

Assay: soluble fraction after stress (log2 fold change); higher = more stays soluble; pooled small domains, quantitative proteomics
Conditions: stress: pH 4
How it was run: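 High-throughput quantitative proteomics was run on pooled custom libraries of small protein domains following pH 4 stress. Fold changes are on a log2 scale; higher values mean more of a domain remained soluble. The fold change in soluble amount is taken as a measure of aggregation propensity.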

| Sequence | soluble fraction (log2) |
| --- | --- |
| HMTMVVIMNADATQADIEGVISAIEEKGLEAKVMEGAHQKIVGVIGDKTKLAATPLDAMHGVETTVAIS | 0.131 |
| HMVREVGYNAFLAMLDSGAVKEVARDESEGQITFLATDEKGKERVYKTGIWPDDTLTERLNTAGVEFA | -0.941 |
| HMDFTISDADFHRLVQFIQQNYGVALSKKRQLISSRLSHSLRELGYKDFRTFLEHLFSTRDPADLELVLNK | -0.399 |
| HMSSLKKISIDELSPGMYVHSIVEQKGSVKIKSQGKVLKQAVVDALRKRGVKTLLIDLSKQFNPETGEP | 0.346 |
| HMGESFEELAREISDDTGSKTEGGETGLFPRGVMAPQFEEAAFLLKVGDISEPIRTKFGYHIIKLKEIKP | -0.0823 |
| HMENQFNDWSLTPSEKEVALFMLKGLSTQEIAAARNTKEKTVRQQASAVYAKSQLDGRYALAAWFFEDI | -1.04 |
| HMSAAELFEERQRQYLRGRKSTKNIADNHGTIILRAGETITDQAIDKAKVAGKLVELVMNNE | 0.144 |
| HMHLKDEHGLTPKQRAFADEYVITLNATVSYKKIYSVKRDSVASTNGSRLLGNANVKAYIDKRLEE | 0.172 |
| HMINAQETEIYRFLIEKANRLYSMVLGLKREELMTATRQFEEEVKHSSIHHLPKIYQAFSSYLELLERG | -0.207 |
| HMKNINTNIGKNLKRIRKLRGLTIDALATSSGVSKSMISEIERGIRNPSITIIWSLANALKTPLNYFLKE | ≥ 0.43 |
| HMTTEIVRMKKDVKIGQEITAKDIEVVEVGAYNLPDEVIRSSEEVVGKYVSSELLKGEYVLPSKISDTP | -0.53 |
| HMSSKSDQLYLQLRRRISAMKDGEPFPTVRQLMTEYQVSQSTVTPAINQLKEKGLIEAYVGRGSFVSKK | 0.161 |
| HMVEMIGLQMVGKSGIASTVLRPSGKVRIDGVVYDAVSEDGFIEKGQAVKVLRYETGQVYVEKL | 0.0132 |
| HMDKINQEAIEDEAGLWLAKIDGRQLAQEEVRELIAWMRRSDFHREYLITLARQWDGMAALNKLATLFP | -1.4 |
| HMARNHYETLGVGRTATGDEIRKAYRSEAQKHHPDRGGDAERMQSLNEARDTLLDDQARAAYDQELDL | -0.0435 |
| HMIKIEDYTNKDYNKVEASLEVKGLVVNIEYKAVDDKAKYKGKEDLIIDQSVKKDATLVKGDTIILYLPK | 0.0435 |
| HMPQLVGDVDGDGRVSVTDGEWIRASYGALPWYAGWRAAADLDGSRKIDVVDLELLRTKMGN | -0.772 |
| HMTNEWRKILSNLNGKYQIVMELFYVDGFSTKEIARMLHITEVNVRSRMVRGRKQLEQILTVR | 0.0998 |
| HMVEPIEESISQLSLLLQSLYEDGKSEVSFEELIRSDRSRVSLFLALLFMAQRGNVYLEQEELFGDLRVKN | -0.4 |
| HMDMTPEEFLAWARHKPFGDPFPKTQTVTFLVPLLGVSRTNIFTWISGKVNPSKTSLLLMEALKRENR | -0.444 |
| HMSKFSDTLVYLRKRAGFSQQELADKMEVSRSLVGMYESGQRMPSYEMLEALADIFNVNIDFLTGH | -0.586 |
| HMIQLTDAEFNELVTYIKKNYGINLIKKRLLIEARMYSVLAKHGFTSFTEYINLIKRDPAELNTMLNKLTT | 0.126 |
| HMPDITAAVARTLQALRADRGWSLDQLAARSGVSKGVLVALEQGRSNPNLATLARIGDAFGVPVTLLVDL | -0.196 |
| HMTNEQLSKAKSWVQIAVYAAEKLYGAGNGDQKLVYAEEILRKHGIRLDTATLKAMIDAQIKEMEN | 0.131 |
| HMKITIDSVERDETFRLIWGTGWKPKNKIQELAAIQAKKNGLGRMNEVAGLAAWRGIWQQVAEQVAQEVL | -0.843 |
| HMQAPVVNHDLIKSFERQWREIKATAKGKVRSVNLSDARSILQSFLNTLQKGPGTDSLISSVQNELSLIA | 0.00595 |

| Sequence | soluble fraction (log2) |
| --- | --- |
| HMGQEEKDIFLKLINISGIGPKLALNILSGIEASELEEAVRNTNVTRLSMVPGIGQKTALRIIMELSDKLE | -0.881 |
| HMQNAETPDVAAEFRTWTSADGQFQVIAKLVKLDGESVHLERQDDGRQIAVPLGKLSSEDRLFLRGVRP | -0.0636 |
| HMKKISAKQQQILDYISSYSLEHGYPPSVREIGAEMGLRSPSTVHAHLKKLQEAGYLEPNEHKSRALTP | -0.0896 |
| HMQLPFTPREHEITQLLSRGLSNRQIAEALSLSVRTVEGHIYQASTKLGISSRSELAVLVGQFA | -0.967 |
| HMDEAAGVLTQLRAFIAASNLSPGLRLPPERELAEQLGVTRAELRKALAVLEAEGLLWRQVGKGTFYGARP | -0.523 |
| HMDGRSLSHATLEEIRIRAVQRVEAGESPEVVVKALGFSRPRIYEWLALYREGGLEALRAKPV | -0.53 |
| HMQQPVVVQQNQTVRVVTGGPGFQVANEGRALNNGLAGQVVQVRLGNGQIISGIARAGGIVEIL | 0.22 |
| HMELEKIRPDLDGLEIMAILGISPSPIVGRAYQYLLDLRMDRGPLGPDAAKAELLNWWSLNQPK | -1.62 |
| HMSKIRSEINKFSSDADKPILEWLFERYHWASQWRFVARFSEQRYGVLSYEINRVWEPTIEGRALYDQL | -1.45 |
| HMIVSVPNVRGMGESKAAAALQNRGLLVSIDYESSTSASQGEVIRQSISPGTEVTKGSSITIIIAVSPN | -0.0228 |
| HMEDTVNVPIQINGKLRHVIQVQIGTSEEEIQKIALSEEQVKKFTDGHEILKVMVPKGKLVSIVI | -0.126 |
| HMNSTSGIAGVGYWINQYRKKKGMSPVDKKSPLVRRVYDWVQEQYDEGRITIISDAELTRQTELAMEA | 0.0383 |
| HMELPPLEPIDRILVVQQPINIREQPGVLAKKIGRVSSGETLTILAKVSGQDWYFVETDNGGRGYVFKRV | -0.222 |
| HMPFGIYGGKVSSLDDLKDKAAVLVPNDVSNEARALLLLEAQGLIKLKEGVGLEATRNDIVEN | -0.0596 |
| HMDEETVALQKAIHSLPPKQQAVFNMRYYDEMSFREIADANETTESSAKANYHFAKAKIIEQMKR | 0.166 |
| HMRAEELEQFVERLKNEVMNNFPLKELSDNELREKIENLVEIRLANVYVSIEQRVAIAEQIYSSIR | -0.633 |
| HMRSHLSANLQRLRHIAGLTQKDLALAANLPRATLASLEQGEANPRLDTLLAVASALQVGLDELIAAP | -1.1 |
| HMAGEDPANLELMRLMDEEYMEHPTKGVLGMVDFLRALGILTGPKRVRRLLRKMGIMAIYPK | -0.396 |
| HMKRGDAYASEMIARLKEAHLIVMEGTLYPLLTRLKNDGLLSYRWEESTQGPPRKYYSITPVG | -0.081 |
| HMINVLTPKQIEATTIAVKYGYYENPRTVSMRELSEISGIARSTLQEHLSKAEAALMILAAKSQL | -0.0956 |
| HMQIMVVDEADRMLDMGFIPDIERIFQLTPFTRQTLFFSATMAPEIERITDTFLHSPERIEVAR | -1.14 |
| HMLARFSGIALNTWTQADVERTFGPPMLVERVARFDGDIWTYRFMDDYEPRMAHIHIDRAGTVRQLVF | -1.74 |
| HMVAVSQEEATKMALERVSGASAQDIRIQLEFDDGIQKYEGDIIYNGREYEFEIDANTGTFLEWSEERA | ≥ 0.43 |
| HMRHLSVPSQDTQQVLQRLKVELALPEGARVRSDPSDPGRRLIPFTESVPQEMIDQYPVVSINI | -0.458 |
| HMELDLPLEELGLSTRVLHSLKEEGIESVRALLALNLKDLKNIPGIGERSLEEIKEALEKKGFTLK | -0.423 |
| HMNLPTSGVDALTPAERRVARMAGDGQSNREIAQTLFVTRKTVEIHLTSVYRKLGIASRAELSARL | -0.59 |

| Sequence | soluble fraction (log2) |
| --- | --- |
| HMDPSKLVEVQEPVSMKALSEGLGIKVTELIATFAFKLKIGGKNINSMLSNDEVELVALDLERNIKVV | -0.0335 |
| HMGGRTITVGISENMTVKDIAQMLEEKGLIEDARLFVVQELLSAYHKEIKPGIYDLSTDMTAAQMLEIMS | -1.32 |
| HMTKSTLQRQKIIADLIESGNISSQNQLKGLLKKNSLLITQATLSRDLSELGAIKKRQKDGLLVYVLPK | -0.0863 |
| HMNQEQQSAVMSALKATLPDLEAALEARQFKESKQLLKTAQNQFQQLDGRNRRGFQARIQLLAGQFRELS | -0.00484 |
| HMSAPEGWMNRGDLRDNFRIQYPVTDRIIASYRESHPEWFGTYLSKTSKSLEYFHPDLVAKVREAAN | -0.145 |
| HMVGLKWYDTGNKKPPIGTEYKNTELSEALKGHDRKEFTWKELDVLGVNITDKEQYIVVGENYYTQV | 0.22 |
| HMPAMYKAERMNQILSILADQGDVDVGTLARQFGVSLVTIRKDLTYLESSGQLVRTHGGAIAVA | -0.26 |
| HMTLGARTLAAIQSLPKVQQAVFTMKHFEGLKYREISQITGTSEGALKASYHIALEKIKAFLREK | -0.443 |
| HMTKMTPNRQLVLSVLQSSGKPLSAYELLDRLREQGTQWQPPTAYRALDYLVEQGLAHYLQSIQKYV | -0.317 |
| HMDKATMRWEQIEKFLETHPYIMNADVRALFNVSAATANRILATLTTEGKLVKYREGGHWAYKY | -0.217 |
| HMEPVQFIQFKIPDGHPWSGQLLREVRLPPGTLVVLLKHDGKNIIPNGETPLLAGDSVILSAASPT | -0.459 |
| HMLPSELLAQQRIVVQPGHNLWRIARATYGRGARYTVIYQANREQIADPNRIFPGQVFALPAA | -0.227 |
| HMPTLNIVDGHIAASDGVRILSIHNVTGRRYATSSKLPAGIYIVVLMPAKAETPLTVKVIVEA | -0.17 |
| HMRKPISQEIVDEVLKLAKNNPDWGYDRIAGVMKYLKYDVSATTVRHILDDNGIVPDPERRLR | -0.0119 |
| HMRPKVADIDYFDGKTFTIEDGSKHSITTSEAKKIYFYLVKNGYVDDESHVTDAYRSAATSGTLA | -0.0612 |
| HMRLPQEVWEKIRAAYEAHGLSFSELAEMYGVNKSNISRRAKAEGWNQAETQRLITATVENE | 0.211 |
| HMQMLQDPFLNALRKEHVPVSIYLVNGIKLQGQVESFDQYVVLLRNTSVTQMVYKHAISTIVPARAVSL | -0.412 |
| HMLYGRRFQVEGLNLERYLRAAADSGIPLKGARRFGRTLTGVAAEEHMAALEALARQGGWLFTPLEAVGAN | -0.0895 |
| HMDHKTKLQEVLQKSGDVFIEYRLIKEEGPAHERIFWIEVYVDDQLIGTGQGKSKKLAEQAAAENALAALE | -1.15 |
| HMLFQGDTPAENIILEILSKNGTTASDSIIKQSGLSVSDFNQAATMLEIKGLISNNGGNIWSL | -0.254 |
| HMVSLLDWAYKQVRRMLFSGDLPQGQKIVVAQLANQLSISPTPVKEALNRLAVEGLLEAVPRRGFQVR | -1.02 |
| HMANADVVLVDLDKEYTVDAAKFHSVVKHSPFNGFAVKGAPVLTIVRGTVVAENGEVVGQPGHSKMVRP | -0.0368 |
| HMLSNYIGMTLGEAKRNLGQGVNITVNGPNNDNAEVTGQDPTSGSSFDKSKDTITLTT | 0.225 |
| HMVSAMLLHKKEILNLLAEEPEALHFASLLRAFGGRHIKNELKQIVDDLVRSGEILRLRGNRYTLPGADN | -0.149 |
